Source: the supplement of paper PMC10567573

B1: KLHL20 (parent)
chain: YQDMIYAVGGRDDTTELSSAERYN

Variants of: B1
Test: protein stability index of a GFP-peptide fusion (GPS, HEK-293T) (PSI 1-6); higher = more stable
Conditions: c terminus: a fixed tail appended
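Note: lentivirally expressed fusions sorted by FACS into six bins by GFP to DsRed ratio, PSI derived from sequencing read proportions per bin multiplied by bin number.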

Variant	protein stability index
YQDMIYAFGGRDDTTELSSAERYN	1.87
YQDMIYANGGRDDTTELSSAERYN	2.81
YQDMIYAPGGRDDTTELSSAERYN	2.79
YQDMIYAWGGRDDTTELSSAERYN	1.94
YQDMIYADGGRDDTTELSSAERYN	3.45
YQDMIYAEGGRDDTTELSSAERYN	3.38
YQDMIYAHGGRDDTTELSSAERYN	2.84
YQDMIYASGGRDDTTELSSAERYN	2.65
YQDMIYACGGRDDTTELSSAERYN	2.37
YQDMIYAQGGRDDTTELSSAERYN	2.6
YQDMIYALGGRDDTTELSSAERYN	1.86
YQDMIYAAGGRDDTTELSSAERYN	2.77
YQDMIYARGGRDDTTELSSAERYN	2.52
YQDMIYAMGGRDDTTELSSAERYN	1.75
YQDMIYAYGGRDDTTELSSAERYN	2.09
YQDMIYATGGRDDTTELSSAERYN	2.41
YQDMIYAGGGRDDTTELSSAERYN	2.81
YQDMIYAKGGRDDTTELSSAERYN	2.44
YQDMIYAIGGRDDTTELSSAERYN	1.97
YQDMIYKVGGRDDTTELSSAERYN	2.12
YQDMIYGVGGRDDTTELSSAERYN	3.01
YQDMIYVVGGRDDTTELSSAERYN	2.16
YQDMIYRVGGRDDTTELSSAERYN	1.76
YQDMIYSVGGRDDTTELSSAERYN	2.55

Variant	protein stability index
YQDMIYDVGGRDDTTELSSAERYN	3.34
YQDMIYNVGGRDDTTELSSAERYN	2.92
YQDMIYCVGGRDDTTELSSAERYN	2.17
YQDMIYWVGGRDDTTELSSAERYN	2.92
YQDMIYMVGGRDDTTELSSAERYN	1.96
YQDMIYYVGGRDDTTELSSAERYN	2.27
YQDMIYEVGGRDDTTELSSAERYN	3.56
YQDMIYQVGGRDDTTELSSAERYN	2.29
YQDMIYFVGGRDDTTELSSAERYN	1.69
YQDMIYLVGGRDDTTELSSAERYN	2.01
YQDMIYTVGGRDDTTELSSAERYN	2.27
YQDMIYHVGGRDDTTELSSAERYN	2.42
YQDMIYIVGGRDDTTELSSAERYN	1.8
YQDMIYPVGGRDDTTELSSAERYN	3.07
YQDMIYAVGGRDHTTELSSAERYN	1.98
YQDMIYAVGGRDLTTELSSAERYN	2.06
YQDMIYAVGGRDWTTELSSAERYN	1.77
YQDMIYAVGGRDVTTELSSAERYN	2.49
YQDMIYAVGGRDPTTELSSAERYN	2.03
YQDMIYAVGGRDRTTELSSAERYN	1.75
YQDMIYAVGGRDMTTELSSAERYN	1.34
YQDMIYAVGGRDTTTELSSAERYN	2.18
YQDMIYAVGGRDFTTELSSAERYN	2.08
YQDMIYAVGGRDKTTELSSAERYN	2.23

Variant	protein stability index
YQDMIYAVGGRDATTELSSAERYN	1.66
YQDMIYAVGGRDYTTELSSAERYN	1.97
YQDMIYAVGGRDETTELSSAERYN	2.36
YQDMIYAVGGRDQTTELSSAERYN	2.11
YQDMIYAVGGRDSTTELSSAERYN	2.18
YQDMIYAVGGRDCTTELSSAERYN	1.8
YQDMIYAVGGRDNTTELSSAERYN	2.01
YQDMIYAVGGRDGTTELSSAERYN	2
YQDMIYAVGGRDITTELSSAERYN	2.26
YQDMIGAVGGRDDTTELSSAERYN	3.77
YQDMIVAVGGRDDTTELSSAERYN	3.01
YQDMIMAVGGRDDTTELSSAERYN	2.98
YQDMIIAVGGRDDTTELSSAERYN	3.08
YQDMIHAVGGRDDTTELSSAERYN	3.27
YQDMITAVGGRDDTTELSSAERYN	3.94
YQDMICAVGGRDDTTELSSAERYN	2.71
YQDMIEAVGGRDDTTELSSAERYN	4.55
YQDMIKAVGGRDDTTELSSAERYN	3.43
YQDMINAVGGRDDTTELSSAERYN	3.98
YQDMIRAVGGRDDTTELSSAERYN	3.37
YQDMIDAVGGRDDTTELSSAERYN	4.74
YQDMILAVGGRDDTTELSSAERYN	2.88
YQDMIFAVGGRDDTTELSSAERYN	2.14
YQDMIWAVGGRDDTTELSSAERYN	2.51

Variant	protein stability index
YQDMIPAVGGRDDTTELSSAERYN	3.41
YQDMIQAVGGRDDTTELSSAERYN	3.87
YQDMISAVGGRDDTTELSSAERYN	3.88
YQDMIYAVGGRDDTGELSSAERYN	2.21
YQDMIYAVGGRDDTAELSSAERYN	2.4
YQDMIYAVGGRDDTEELSSAERYN	2.44
YQDMIYAVGGRDDTHELSSAERYN	2.19
YQDMIYAVGGRDDTQELSSAERYN	3.13
YQDMIYAVGGRDDTRELSSAERYN	2.08
YQDMIYAVGGRDDTKELSSAERYN	2.13
YQDMIYAVGGRDDTVELSSAERYN	2.08
YQDMIYAVGGRDDTFELSSAERYN	2.38
YQDMIYAVGGRDDTLELSSAERYN	2.58
YQDMIYAVGGRDDTPELSSAERYN	2.17
YQDMIYAVGGRDDTWELSSAERYN	1.8
YQDMIYAVGGRDDTNELSSAERYN	2.33
YQDMIYAVGGRDDTIELSSAERYN	2.09
YQDMIYAVGGRDDTSELSSAERYN	2.46
YQDMIYAVGGRDDTDELSSAERYN	2.49
YQDMIYAVGGRDDTMELSSAERYN	1.92
YQDMIYAVGGRDDTCELSSAERYN	2.49
YQDMIYAVGGRDDWTELSSAERYN	1.56
YQDMIYAVGGRDDDTELSSAERYN	2.79
YQDMIYAVGGRDDGTELSSAERYN	2.47

Variant	protein stability index
YQDMIYAVGGRDDSTELSSAERYN	2.48
YQDMIYAVGGRDDQTELSSAERYN	2.35
YQDMIYAVGGRDDRTELSSAERYN	2.13
YQDMIYAVGGRDDHTELSSAERYN	1.98
YQDMIYAVGGRDDCTELSSAERYN	2.47
YQDMIYAVGGRDDNTELSSAERYN	2.36
YQDMIYAVGGRDDVTELSSAERYN	2.25
YQDMIYAVGGRDDKTELSSAERYN	2.17
YQDMIYAVGGRDDITELSSAERYN	2.09
YQDMIYAVGGRDDLTELSSAERYN	2.48
YQDMIYAVGGRDDMTELSSAERYN	2.01
YQDMIYAVGGRDDPTELSSAERYN	2.89
YQDMIYAVGGRDDATELSSAERYN	1.82
YQDMIYAVGGRDDETELSSAERYN	2.78
YQDMIYAVGGRDDYTELSSAERYN	2.1
YQDMIYAVGGRDDFTELSSAERYN	2.18
YQDMIYAVKGRDDTTELSSAERYN	2.07
YQDMIYAVNGRDDTTELSSAERYN	1.95
YQDMIYAVSGRDDTTELSSAERYN	1.85
YQDMIYAVDGRDDTTELSSAERYN	2.88
YQDMIYAVYGRDDTTELSSAERYN	1.32
YQDMIYAVRGRDDTTELSSAERYN	2.36
YQDMIYAVWGRDDTTELSSAERYN	1.92
YQDMIYAVPGRDDTTELSSAERYN	2.32

Variant	protein stability index
YQDMIYAVAGRDDTTELSSAERYN	1.94
YQDMIYAVMGRDDTTELSSAERYN	2.17
YQDMIYAVCGRDDTTELSSAERYN	2.23
YQDMIYAVFGRDDTTELSSAERYN	2.15
YQDMIYAVIGRDDTTELSSAERYN	1.51
YQDMIYAVTGRDDTTELSSAERYN	2.4
YQDMIYAVHGRDDTTELSSAERYN	1.94
YQDMIYAVEGRDDTTELSSAERYN	2.53
YQDMIYAVQGRDDTTELSSAERYN	2.27
YQDMIYAVLGRDDTTELSSAERYN	2.01
YQDMIYAVVGRDDTTELSSAERYN	2.02
YQDMIYAVGGVDDTTELSSAERYN	2.16
YQDMIYAVGGKDDTTELSSAERYN	2.55
YQDMIYAVGGLDDTTELSSAERYN	1.99
YQDMIYAVGGADDTTELSSAERYN	2.54
YQDMIYAVGGEDDTTELSSAERYN	3
YQDMIYAVGGIDDTTELSSAERYN	2.44
YQDMIYAVGGMDDTTELSSAERYN	2.32
YQDMIYAVGGPDDTTELSSAERYN	2.57
YQDMIYAVGGDDDTTELSSAERYN	3.01
YQDMIYAVGGGDDTTELSSAERYN	2.33
YQDMIYAVGGFDDTTELSSAERYN	2.08
YQDMIYAVGGWDDTTELSSAERYN	2.08
YQDMIYAVGGYDDTTELSSAERYN	1.91

Variant	protein stability index
YQDMIYAVGGNDDTTELSSAERYN	2.49
YQDMIYAVGGQDDTTELSSAERYN	2.75
YQDMIYAVGGHDDTTELSSAERYN	2.1
YQDMIYAVGGCDDTTELSSAERYN	2.69
YQDMIYAVGGTDDTTELSSAERYN	2.23
YQDMIYAVGGSDDTTELSSAERYN	2.9
YQDMIYAVGRRDDTTELSSAERYN	1.86
YQDMIYAVGYRDDTTELSSAERYN	1.8
YQDMIYAVGNRDDTTELSSAERYN	2.45
YQDMIYAVGFRDDTTELSSAERYN	2.27
YQDMIYAVGKRDDTTELSSAERYN	1.83
YQDMIYAVGQRDDTTELSSAERYN	2.61
YQDMIYAVGPRDDTTELSSAERYN	2.44
YQDMIYAVGSRDDTTELSSAERYN	2.09
YQDMIYAVGCRDDTTELSSAERYN	2.23
YQDMIYAVGLRDDTTELSSAERYN	1.78
YQDMIYAVGWRDDTTELSSAERYN	1.91
YQDMIYAVGERDDTTELSSAERYN	2.92
YQDMIYAVGHRDDTTELSSAERYN	2.12
YQDMIYAVGVRDDTTELSSAERYN	2.05
YQDMIYAVGTRDDTTELSSAERYN	1.82
YQDMIYAVGDRDDTTELSSAERYN	2.81
YQDMIYAVGARDDTTELSSAERYN	1.83
YQDMIYAVGIRDDTTELSSAERYN	1.62

Variant	protein stability index
YQDMIYAVGMRDDTTELSSAERYN	1.87
YQDMIYAVGGRHDTTELSSAERYN	2.17
YQDMIYAVGGRTDTTELSSAERYN	1.58
YQDMIYAVGGRLDTTELSSAERYN	2.21
YQDMIYAVGGRIDTTELSSAERYN	1.6
YQDMIYAVGGRMDTTELSSAERYN	1.76
YQDMIYAVGGRGDTTELSSAERYN	2.47
YQDMIYAVGGRADTTELSSAERYN	2.33
YQDMIYAVGGRNDTTELSSAERYN	2.43
YQDMIYAVGGRCDTTELSSAERYN	2.01
YQDMIYAVGGRSDTTELSSAERYN	2.32
YQDMIYAVGGRKDTTELSSAERYN	2.1
YQDMIYAVGGRQDTTELSSAERYN	2.09
YQDMIYAVGGREDTTELSSAERYN	2.74
YQDMIYAVGGRPDTTELSSAERYN	2.34
YQDMIYAVGGRFDTTELSSAERYN	1.45
YQDMIYAVGGRWDTTELSSAERYN	1.8
YQDMIYAVGGRYDTTELSSAERYN	1.9
YQDMIYAVGGRRDTTELSSAERYN	1.78
YQDMIYAVGGRVDTTELSSAERYN	1.53
